Laboratory results published in the nanobody polyreactivity screen of Harvey et al. (2022).

Experiment: yeast display, Sf9 membrane polyspecificity reagent, FACS + sequencing; frameworks hold sequencing errors
Procedure, shortened: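 Galactose-induced (36–48 hours) yeast carrying a synthetic nanobody display library were exposed to 10% biotinylated, detergent-solubilized Sf9 membrane reagent at 4 °C for 1 hour. FACS followed streptavidin microbead enrichment, using low and high (top ~1%) gates for expression (anti-HA) and reagent binding (streptavidin). Colony PCR, MiSeq 2 × 250 sequencing and CDR-length filtering followed. Labels for polyreactivity reflect the gate of origin.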
In the case of “QVQLVESGGGLVPSGGSLRLSCAASGRIFTSNAMGWYRQAPGKERELVAAISKSGGRTYYADSVKGRFTISRDNAKNTVYLQMNSLKPEETAVYYFAKDNFWGQGTQVTLSS”, the “polyreactivity (PSR sort gate)” value is reported as “high polyreactivity”.
For “QVQLVESGGGLVQAAASLRLSCAAYGITFNSYVMGWSRQAPGKERELVAVISRGGGITYYADSVKGRFTISRDNAKNTVYLQMNSLKPEDTAVYYCAADHTHVYVLYYNDNYWGQGTQVTVSS”, the “polyreactivity (PSR sort gate)” value was “high polyreactivity”.
In the case of “QVQLVESGGGLVQAAGILRLSCAASGFIVVRNAMGWYRQAPGKERELVAAISAIGSSTYYADSVKGRFTISRDNAKNTVYLQLNSLKPEDTAVYYCAASGSRVSERSPTRLDYYCGQGTQVTVSS”, the “polyreactivity (PSR sort gate)” value is reported as “high polyreactivity”.
In the case of “QVQLVESGGGLVQAAGILRLSCAASGSIFVTNAKGWYRQAPGKERELVAAISSGGNTNYADSVKGRFTISRDNAKNTVYLQINSLKPVDTAVYYCAKDPDKVDSVDMDYWGHGTQVTVSS”, the “polyreactivity (PSR sort gate)” value is reported as “low polyreactivity”.
In the case of “QVQLVESGGGLVQAAGRLRLSSAASGIIFYSYAMGWYRQAPGTEREFVAAITNSDGSTYYADSVKGRFTISRDNAKNTVYLQMYSLKPEDTAVYMYYWGQGTQVTVSS”, the “polyreactivity (PSR sort gate)” value is reported as “low polyreactivity”.
With “QVQLVESGGGLVQAAGSLRLSCAASGFIFHYNAMGWYRKATGKERELDASITASASRTYYADSVKGRFTISLDNAKNTVYLQMNSLKPEDTAVYYCAKAIRITITRYRFGYWVQGTQVTVSS” the “polyreactivity (PSR sort gate)” value was “high polyreactivity”.
For “QVQLVESGGGLVQAAGSLRLSCAASGITFSWYAMGWYRQAPGNERALVASITQSGGSTYYADSVKGRFTISRDNAKNTVYLQMTCLKPEVTAVYYCSKRYLKPVYCYVRNYGSDYWGQGTQVTVSS”, the “polyreactivity (PSR sort gate)” value was “low polyreactivity”.
For “QVQLVESGGGLVQAAGSLRLSCAASGQFFAYYAMGWYRQATGKEREFVAAISWTGGSTYYADSVKGRFTISRDYAKKTVYLLMNSLKPEDTGVYYCAAVSNHLRYVASRYSYYYWGQGTQVTVSS”, the “polyreactivity (PSR sort gate)” value was “high polyreactivity”.
In the case of “QVQLVESGGGLVQAAGSLRLSCAASGRTFKYNAMGWYRQAPGKERELVAAITRSGTTYYADSVKGRFTISRDNAKNTVYLQMNSLKPEDTAVYYCNARIVNYGSYYYWGQGTQVTVSS”, the “polyreactivity (PSR sort gate)” value is reported as “high polyreactivity”.
In the case of “QVQLVESGGGLVQAAGSLRLSCAASGRTLGYYAMGWYRPAPGKERELVAAITRGGSTNYADSVKGRFTISRDNAKNTVYLQMNSLKPEDTAVYYCARRGGYFWLKGDYWGQGTQVTVSS”, the “polyreactivity (PSR sort gate)” value is reported as “high polyreactivity”.
In the case of “QVQLVESGGGLVQAAGSLRLSCAASGSIFSANSMGWYRQAPGKERELVAAISGRGTRTYYADSVKGRFTISRDNAKYTVYLQMNSLKPEDTAVYYCNAARDRTSPEYDYWGQGTQVTVSS”, the “polyreactivity (PSR sort gate)” value is reported as “high polyreactivity”.
With “QVQLVESGGGLVQAAGSLRLSCAASGYTFGYYAMGWYRQAPGKERELVAAINWSGGSTYYADSVKGRFTISRDNEKNSVYLQMYSLKPEDTAVYYCAAQSRSPGYYYWGQGTQVTVSS” the “polyreactivity (PSR sort gate)” value was “high polyreactivity”.
For “QVQLVESGGGLVQAAGSLRLSCAAYGGIFYWYAMGWYRQAPGKVRELVAVITLSGGSTDYADSVKGRFTISRDNAKNTVSLQMNSLKPEDTAFYYCAAEAYSYYPGTYEDDYWGQGTQVTVSS”, the “polyreactivity (PSR sort gate)” value was “low polyreactivity”.
For “QVQLVESGGGLVQAAGSLRLSSAASGRTFVGYSMGWYRQAPGKERELVAAIHWSVGITYYADSVKGRFTISRDNAKNTVYLQMNSLKPEDTAVYYCAADGYDEPDLLVYEPWREDEYWGQGTQVTVSA”, the “polyreactivity (PSR sort gate)” value was “low polyreactivity”.
In the case of “QVQLVESGGGLVQAAGSLSLICAASGIIFQRSAKGWYRQAPVKERELVATLTISGGSTYYADSVKGRFTISREYAKNTVYLQMNRLKPEDTAVYYCAAALYYPTVRRRFGSDYYWGQGTQVTVSS”, the “polyreactivity (PSR sort gate)” value is reported as “low polyreactivity”.
With “QVQLVESGGGLVQAGASIRLSCAASGSTFYTYDMGRYIQAPGKERELVAVITPRSGTTSYADSVKGRFTISRDYAKNTVYLQMNSLKPEDTAVYYCNVYIPYSYGEYDYWGQGTQVTVSS” the “polyreactivity (PSR sort gate)” value was “high polyreactivity”.
In the case of “QVQLVESGGGLVQAGASLRLICAASGITFDWYGMGWYRHAPGKERELVATITGSGDSTNYADSVKGRFTISRDNAQNTVYLQMNSLKPEDTAVYYCAAPTSYDQFGYEYWGQGTIVTVSS”, the “polyreactivity (PSR sort gate)” value is reported as “low polyreactivity”.
For “QVQLVESGGGLVQAGASLRLSCAAAGITIGSNVMGWYRQAPRKERELVAAISQCGGRTYYADSVKGRFTISRDYAKNTVYLQMNSMKPEDTAVYYCAKRQRSFYGRPMCDYWGQGTQVTVSS”, the “polyreactivity (PSR sort gate)” value was “high polyreactivity”.
With “QVQLVESGGGLVQAGASLRLSCAASGFILYYYAMGWYRQAPGKERELVAAISARGGSTYYADSVKGRFTISRDNAKNTVYLQMNSLKPVDTAVYYCKKAGGYTGYTRRYEYWGQGTQVTVSS” the “polyreactivity (PSR sort gate)” value was “high polyreactivity”.
For “QVQLVESGGGLVQAGASLRLSCAASGFTLADNTMGWYRQAPGKERELVAAITSGASTYYADSVKGRFTISRDNAKNTVYLQMKSLKPEDTAVYYCAALYYWRSGYDYWGQGTQVTVSS”, the “polyreactivity (PSR sort gate)” value was “low polyreactivity”.
For “QVQLVESGGGLVQAGASLRLSCAASGGTIAPYAMGWYRQAPGNVRELVAAITSAGTRTYYADSVKGRFTISRENAKNTVYLQMNRLKPEDTAVYYCAAGGGHSMYYWGKGTQVTVSS”, the “polyreactivity (PSR sort gate)” value was “high polyreactivity”.
With “QVQLVESGGGLVQAGASLRLSCAASGHIFDSYAMGWYRQAPGKERELVAAITSGGSTYYADSVKGRFTISRDYAKNTVYLQMNSLKSEDTAVYYCATELGAAGDDSWGQGTQVTVSS” the “polyreactivity (PSR sort gate)” value was “low polyreactivity”.
In the case of “QVQLVESGGGLVQAGASLRLSCAASGIILHYYAMGGYRQAPGKERELVAAISARGGRTYYADSVKGRFTISRDNAKNTVYLQMNSLKPEDTAVYYCARYLRRSSPSPGYGYWGQGTQVTVSS”, the “polyreactivity (PSR sort gate)” value is reported as “high polyreactivity”.
In the case of “QVQLVESGGGLVQAGASLRLSCAASGITFLDYAMGWYRQAPGTEREMVAVITWNDGSTYYADSVKGRFTISRDNAKNTVYLQMNSLKPEDTAVYYCAAEYADSWSAFDWNYYYWGQGTQVTVSS”, the “polyreactivity (PSR sort gate)” value is reported as “high polyreactivity”.
With “QVQLVESGGGLVQAGASLRLSCAASGLIFVSNAMGWYRQAPGKERELVAAISWSGSRTYYADSVKGRFTISRDNAKINVYLHMTSLKPEDTAVFYCNAVRRGLPVVGAYDYWGQGTQVTVSS” the “polyreactivity (PSR sort gate)” value was “high polyreactivity”.
With “QVQLVESGGGLVQAGASLRLSCAASGRIFNGYAMGWYRQAPWKERELVATIRYRGDNTYYADSVKGRFTISRDNAKNTVYLQMNSLKPEDTAVYYCNARVWYTSTSSWAKRYNYWGQGTQVTVSS” the “polyreactivity (PSR sort gate)” value was “high polyreactivity”.
With “QVQLVESGGGLVQAGASLRLSCAASGRIFSGNAMGWYRQAPGKERELVAAISRGGSTDYADSVKGRFTSSRDNAKNTVYLQMNSLKPEDTAVYYCADRVNGKRRRYDYWGQGTLVTVSS” the “polyreactivity (PSR sort gate)” value was “high polyreactivity”.
In the case of “QVQLVESGGGLVQAGASLRLSCAASGRTFAWYAMGWYRQAPGKERELVAAISSGGSTYYADSVKGRFTISRDNAKISVYLQMNSLKPEDTAVYDCAAEWHYIYAYDYWGQGTKVTVSS”, the “polyreactivity (PSR sort gate)” value is reported as “low polyreactivity”.
With “QVQLVESGGGLVQAGASLRLSCAASGRTFAYNAMGWSRQAPGKERELVATISNGGTTNYADSVKGRFTISRDNAKNTVYLQMNSLKPEDTAVYYCNRRSYTQVLMDYWGQGTQVTVSS” the “polyreactivity (PSR sort gate)” value was “high polyreactivity”.
In the case of “QVQLVESGGGLVQAGASLRLSCAASGRTFGRYTMGWYRQAPGKEREFVARINWNGGGTYYADSVKGRFTISRDNAKNTVYLQMNSLKPEDTAVYYCNARKRGARFILGYDYWGQGTQVTVSS”, the “polyreactivity (PSR sort gate)” value is reported as “low polyreactivity”.
For “QVQLVESGGGLVQAGASLRLSCAASGRTFRYYAMGWYRQAPGKERELVAAINTGSSTYYADSVKGRFTISRDNAKYTVYLQMNSLKPEDTAVYYCNVFQGTRYGYWGQGTKVTVSS”, the “polyreactivity (PSR sort gate)” value was “low polyreactivity”.
For “QVQLVESGGGLVQAGASLRLSCAASGRTFSENAMGWYRQAPGKERELVAAISGSGGRTYYADSVKGRFTISRDNEKNTVYLQMKSLKPEVTAVYYCAKVTRYGSTYDYWGQGTQVTVSS”, the “polyreactivity (PSR sort gate)” value was “high polyreactivity”.
